These results are taken from PMC3258846 (Molecular Cell, 2011).

Assay [1] has as its target GST-ASCC3-B (human, UniProt Q8N3C0 401-1300). The assay can be described thus: pull-down.
Assay [2] deals with GST-ASCC3-C (human, UniProt Q8N3C0 1301-2202). The experiment in a line: pull-down.
Sequence of GST-ASCC3-C (Q8N3C0 1301-2202): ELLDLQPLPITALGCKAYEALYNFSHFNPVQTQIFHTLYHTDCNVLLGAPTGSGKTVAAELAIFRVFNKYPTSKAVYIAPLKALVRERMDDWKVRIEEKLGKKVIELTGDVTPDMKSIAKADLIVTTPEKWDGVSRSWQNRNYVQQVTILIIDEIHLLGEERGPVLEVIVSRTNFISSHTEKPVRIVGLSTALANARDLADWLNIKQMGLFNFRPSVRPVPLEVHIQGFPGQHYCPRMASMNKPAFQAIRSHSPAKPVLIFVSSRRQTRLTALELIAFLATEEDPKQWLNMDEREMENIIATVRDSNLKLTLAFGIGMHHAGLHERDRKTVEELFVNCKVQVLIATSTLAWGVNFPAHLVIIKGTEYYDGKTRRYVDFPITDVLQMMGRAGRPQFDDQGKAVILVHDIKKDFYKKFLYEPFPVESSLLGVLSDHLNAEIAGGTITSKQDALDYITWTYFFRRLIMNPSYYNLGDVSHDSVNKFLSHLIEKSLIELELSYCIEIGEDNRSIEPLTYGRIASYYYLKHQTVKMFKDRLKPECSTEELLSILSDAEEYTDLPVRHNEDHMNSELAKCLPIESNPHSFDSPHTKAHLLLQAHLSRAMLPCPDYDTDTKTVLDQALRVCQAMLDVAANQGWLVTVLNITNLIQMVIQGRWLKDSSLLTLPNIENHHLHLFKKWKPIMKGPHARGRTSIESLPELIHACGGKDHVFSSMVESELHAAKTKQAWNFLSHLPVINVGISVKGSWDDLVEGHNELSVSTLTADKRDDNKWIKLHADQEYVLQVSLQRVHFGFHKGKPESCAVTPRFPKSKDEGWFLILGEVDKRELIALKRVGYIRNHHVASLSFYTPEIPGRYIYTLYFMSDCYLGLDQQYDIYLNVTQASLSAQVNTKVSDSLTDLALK

Sequence of GST-ASCC3-B (Q8N3C0 401-1300): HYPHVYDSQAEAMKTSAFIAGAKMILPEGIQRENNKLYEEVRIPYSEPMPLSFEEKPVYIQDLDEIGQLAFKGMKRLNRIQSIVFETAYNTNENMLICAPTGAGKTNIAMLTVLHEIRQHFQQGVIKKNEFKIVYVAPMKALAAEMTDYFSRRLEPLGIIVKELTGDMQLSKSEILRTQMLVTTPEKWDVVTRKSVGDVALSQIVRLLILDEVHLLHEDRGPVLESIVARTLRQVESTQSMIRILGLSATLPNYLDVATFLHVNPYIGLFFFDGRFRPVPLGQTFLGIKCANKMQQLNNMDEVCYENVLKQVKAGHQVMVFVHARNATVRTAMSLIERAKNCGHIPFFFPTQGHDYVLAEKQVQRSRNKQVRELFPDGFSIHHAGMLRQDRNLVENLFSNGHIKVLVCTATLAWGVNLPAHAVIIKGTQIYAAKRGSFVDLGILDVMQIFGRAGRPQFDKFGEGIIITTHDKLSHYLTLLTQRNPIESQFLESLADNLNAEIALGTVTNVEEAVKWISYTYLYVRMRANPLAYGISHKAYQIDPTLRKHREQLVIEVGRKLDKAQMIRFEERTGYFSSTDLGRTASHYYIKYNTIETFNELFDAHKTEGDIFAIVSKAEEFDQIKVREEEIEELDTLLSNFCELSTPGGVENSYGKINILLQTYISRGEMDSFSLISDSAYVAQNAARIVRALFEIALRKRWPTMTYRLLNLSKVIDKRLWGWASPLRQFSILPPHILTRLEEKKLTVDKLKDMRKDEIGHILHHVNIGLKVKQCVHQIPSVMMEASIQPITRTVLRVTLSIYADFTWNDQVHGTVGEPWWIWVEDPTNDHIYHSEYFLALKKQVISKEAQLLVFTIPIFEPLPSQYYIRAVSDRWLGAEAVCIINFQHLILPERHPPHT

B1: His6-ALKBH3 (enzyme, human, UniProt Q96Q83 1-286, looked up)
chain: MEEKRRRARVQGAWAAPVKSQAIAQPATTAKSHLHQKPGQTWKNKEHHLSDREFVFKEPQQVVRRAPEPRVIDREGVYEISLSPTGVSRVCLYPGFVDVKEADWILEQLCQDVPWKQRTGIREDITYQQPRLTAWYGELPYTYSRITMEPNPHWHPVLRTLKNRIEENTGHTFNSLLCNLYRNEKDSVDWHSDDEPSLGRCPIIASLSFGATRTFEMRKKPPPEENGDYTYVERVKIPLDHGTLLIMEGATQADWQHRVPKEYHSREPRVNLTFRTVYPDPRGAPW
Take B1: the binding result in assay [1] and in assay [2] was “binds” throughout.
